Tested on: K4 kissing-loop RNA reporter
Test: apparent KD of K4 kissing-loop reporter; higher = weaker reporter binding
Settings: Eterna round: R107
Experimental: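 RNA-MaP round R107: designed RNA switches with theophylline, tryptophan, arginine or FMN aptamers are transcribed on-chip within common flanks. They are titrated with a labelled K4 kissing-loop RNA reporter in RNA-MaP buffer (100 mM Tris pH 7.5, 80 mM KCl, 4 mM MgCl2), without ligand or with the indicated ligand. Median apparent KD per design.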

[1] = input ligand: theophylline 20 uM
[2] = input ligand: tryptophan 2.4 mM
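Note: bound reporter read as fluorescence of individual clusters on recovered sequencing chips by microscopy, with normalized cluster intensities fitted with a binding model.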

Row | Sequence | apparent KD of K4 kissing-loop reporter (input ligand: FMN 200 uM) [nM] | apparent KD of K4 kissing-loop reporter (input ligand: arginine 13.2 mM) [nM] | apparent KD of K4 kissing-loop reporter (input ligand: none) [nM] | apparent KD of K4 kissing-loop reporter [1] [nM] | apparent KD of K4 kissing-loop reporter [2] [nM]
1 | GGAAAUCUUGCCGAUACCAGAUCGCGCGGCCAUUGCUAGUGAUGUUGGCAAUAAGUACUCAUCCCUUGGCAGCGGUAAGGCAGUG [theeternabot_sameState_KL_Theo_B_23] | 390 | 293 | 359 | 195 | 280
2 | AAGCAGUCACUCGAACCCAUCGAAGAUGGGCGAGGACCGGUACGGCCGCCACUCGGAGUGAUGUUCCGAAGACUGCAAAAUAAAA | 329 | 367 | 293 | 341 | 555
3 | AAACGUUGGUGCGAUACCAGCUGGUCGGAAACGACCUUGCUGGAGUGAUGUUCCAAGUAAAGCCCUUGGCAGCGCACCGACGAAA [MAT - Same State Theophlline B - Mod of Eli - D23] | 122 | 53.6 | 43.2 | 135 | 93.9
4 | AGUACAAUGGCGGCCGCCACUCAAUGGCAGAUCAAAGAUCUGCAUCACUCAGUGAUGUUGAGUGAGAGGACCGGGCCUUUGUACA [Omei KL Tryp B SS B v7] | 564 | 517 | 563 | 505 | 157
5 | AGAGUCAGACAAAAGUCUGGCUCAGCCGAAGGAGCGUCCGAAAGGACAGGUAGGUCGCGGUUGCAUGAGUGAUGUUGAUGUUUUU [KL-SSArg-A23] | 546 | 372 | 425 | 559 | 500
6 | UAAUGUGGCACAGGAUAUACUGAUUGGAGUGAUGUUCCAAACAUGAACAAGAGACUUUUACAAGAAGUAGAAGGGUGUUAGAUAU [Exclusion FMN B GF 19] | 269 | 265 | 223 | 295 | 223
7 | GCCUACGAUGCAGGAUAUAGCUCGCGAGUGAUGUUCGCAGCUGUAUGGUAGUAAGCUUCCACGUGUCUAGAAGGGCAUCGUAGGC [#01 K4 FMN B Exclusion] | 131 | 80.2 | 93.6 | 83.3 | 88.7
8 | UACAGGGAUAGUGAUGUUAUCCCAUGUGAUACCAGUGCCAUCCAACACCCUUGGCAGCAUACGGGCAGUGAUGUUGUUCUUGGUA [#16 K4 Theophylline A Exclusion] | 89.8 | 79.8 | 86 | 86.1 | 80.1
9 | GGAUAGGACAGAGGAUAUGGUAGUGAUGUUACCAAACUGGUUACUCUUGUCAGAAAACUGGCAUCUCCAGAAGGCUGUCCUAUCG [KL-XFMN-B10] | 594 | 109 | 123 | 135 | 127
10 | UCUGAAUUAUCUGAUACCAGACUUUUUGUAUUUAUUAAAACUAGUGAUGUUAGUUUAUCUGUCCCUUGGCAGCAGUUUCUACAGA [JR_Nu_ExcTheophyB_Sub022] | 79.9 | 95.4 | 83.8 | 90.8 | 72.5
11 | UACUAUAGUGAUGUUAUAGAUAAACCAGAUACCAGUGUAACAUAACACCCUUGGCAGCUGAUGAGGGAAGAUAUCAAAAGAUAUC [AstroSTH-A#9newdesignED4.70] | 218 | 218 | 202 | 247 | 199
12 | UGAUAGGACAGAAGGAGCGGUAGUGAUGUUACCAAAAGAAUAAGGUGUCAAAAGACACCCUGCCAGGUAGGUCGCUGUCCUAUCU | 97.4 | 111 | 90.9 | 123 | 86
13 | AUUAUCAAUUUAUUAUAUAACUUUUCAGAAGGAGCGUGGAAGUACACAGGUAGGUCGCUGAAUAUAGGACUAGUGAUGUUAGUUA [JR_Nu_SSArginiA_Sub024] | 236 | 221 | 266 | 298 | 248
14 | ACGCCGAGGACGGCCGCCACUAUGACGAAGUCCGUUCCUAUUACUGCGCGAGUGAUGUUCACGACUAGGACCGGGUCUAUGAGCU [theeternabot_exclusion_KL_Trp_B_28] | 775 | 708 | 843 | 771 | 631
15 | AGCCAGCGUACAUCACUCUGGCUGCUGGAUACCAGCUCGGAAACGAGCCCUUGGCAGCCAGAACUUGCAGUGAUGUUGCAAGUAA [Design12] | 460 | 276 | 402 | 458 | 345
16 | AGGUUUUGAUUAGGAUAUGCACUGAGGAGGAGAAUAUAGUGAUGUUAUAUAAGAGGAAUUAGUAGAGUAGAAGGGAUUGAGGUUU [SSFMNB.T] | 248 | 167 | 131 | 124 | 196
17 | AAAUUUAUAUUAGAUACCAGUUUAAUGGAUGUAAAUUAUGACAUGAGUGAUGUUCAUGUAAGCCCUUGGCAGCUGGUAUGGGUUU [KL-XTheo-B21] | 127 | 110 | 121 | 116 | 115
18 | GGUAGCAUGGCGGCCGCCACUCUAUGCGAGUGAUGUUCGCAGCUCAAAGAGCACCCGGGAACAGAGAGGACCGGGCCAUGCUACC | 294 | 228 | 261 | 302 | 213
19 | GGCGUCUAAAAGUGCCUAGAGAGAAAGGAUACCAGCACCCGGCGGUGCCCUUGGCAGCCUAGCCCAGUGAUGUUGGGUCCUCUAA [Lasorian] | 380 | 159 | 312 | 336 | 286
20 | CGAGUCCUGAGGAGUGAUGUUCCUCGGCCACGAGGACCGGUACGGCCGCCACUCGUUACUCGGGCUUAGUGGCUAGCACUAAGCU [Tirete] | 200 | 249 | 203 | 238 | 118
21 | AAAUAAAGCAGUCACCCAGUGAUGUUGGAAGGAGCGUGCGAAAGCACAGGUAGGUCGCCGAUAAGGACAAAGUCCAGUGGCUGCA [#SwitchBubble 28 #K4Early] | 458 | 344 | 595 | 590 | 283
22 | GGUCGAGUGAUGUUCGAUGUAGUGCAUUCAGAGGAUAUAGGAUGGGCUAGAAGGCUGAAAGGUGCUUCGAGUGAUGUUCGAGGAU [Exclusion FMN A GF 3] | 105 | 80.7 | 126 | 115 | 89

Row | Sequence | apparent KD of K4 kissing-loop reporter (input ligand: FMN 200 uM) [nM] | apparent KD of K4 kissing-loop reporter (input ligand: arginine 13.2 mM) [nM] | apparent KD of K4 kissing-loop reporter (input ligand: none) [nM] | apparent KD of K4 kissing-loop reporter [1] [nM] | apparent KD of K4 kissing-loop reporter [2] [nM]
23 | AAAAUAAAGGAGUGAUGUUCCAUAACGGAUACCAGCCACGAAAGUGGCCCUUGGCAGCUGUGCCAGUGGACGAAUAACGUCCACA [#OpenEnded 6 #StaticStem #K4Early] | 164 | 287 | 237 | 280 | 164
24 | AAAAUAAACCAGUGAUGUUGGUAUCCAGAUACCAGCGACGAAAGUCGCCCUUGGCAGCUGUGGACGUACAAAAUAAGUACGUCCU | 930 | 619 | 894 | 746 | 714
25 | UAACGCUGACAGCAACAAUUCGGGCCUGAUACCAGCAAUUUUUCAUGCCCUUGGCAGCAGAGUGAUGUUUUCUGUCUAUUUAGUC [theeternabot_exclusion_KL_Theo_A_23] | 628 | 723 | 864 | 700 | 520
26 | AGUACAAUUGCGGCCGCCACUCAACGCAGAUCAAAGAUCUGCAUUCACUCAGUGAUGUUGAGUGAGAGGACCGGGCAUUUGUACA [Omei KL Tryp B SS B v2] | 676 | 481 | 548 | 512 | 164
27 | UACUAUAGUGAUGUUAUAGAUAAACCAGAUACCAGUGUAACAUAACACCCUUGGCAGCUGAUGAGGGAACUAUUGAAAACAAUAG [AstroSTH-A#7newdesignED4.86] | 248 | 203 | 267 | 223 | 217
28 | AAAAUAACCCAGUGAUGUUGGUAUACAGAUACCAGCGACGAAAGUCGCCCUUGGCAGCUGUGGACGUACAAAAUAAGUACGUCCU | 986 | 705 | 1120 | 902 | 1010
29 | GCCGUAGAUUGAAGGAGCGCCGCGCAUGUCCCGCUUAGUGUAGUGAUGUUACAGUUUCAGCGGCAGGUAGGUCGCAAUCUACGGC | 83.4 | 83.3 | 81.3 | 77.2 | 69.5
30 | UCGCAUUAACCGGAUACCAGCUUAGUGGGAUCUUCAAUCCGACAGAAAGUGAUGUUUUCUAGCCCUUGGCAGCCGAGAUUAUCAC [theeternabot_sameState_KL_Theo_B_50] | 231 | 333 | 331 | 412 | 348
31 | AGCGCCUAAGCCGAUACCAGAAACGCGGUGCGUCGCACGAUUAACUAGGAAAGUGAUGUUUUCCCUUGGCAGCGGGACCUGUGAG [theeternabot_exclusion_KL_Theo_B_11] | 119 | 116 | 134 | 133 | 135
32 | UGAUUGGCGAAAGUAGUGAUGUUACGAAUAUAGGAUAUUAGAGGAAUAAGAAGGAUAAAGGAGAAAUAGGUAAAUUGUUGGUUGG [whbob_SS_FMNA__2th169] | 110 | 59.8 | 104 | 128 | 93.4
33 | UGCGCUAUGUCCUAAAACGUCCUCCGGGAUACCAGUGUCUUUUUAUACCCUUGGCAGCUUGAGUGAUGUUUGAUGCCGUUCUUGU [izzxmullin] | 432 | 225 | 310 | 386 | 304
34 | GCUGCCAUGGCAGGAUAUAUAAAUGCUGAGUGAUGUUCUGCAUCAUAUGUCCCUGACCGCGGCGGUGUAGAAGGGCCAUGGCAGC | 135 | 93 | 107 | 97.1 | 103
35 | UCUCCAAAGUCGGCCGCCACUCCGGGCCCUAUAAAUGGGCGCAGUGAUGUUGCGGCUAGGCCUCUGAGGACCGGGACUUUGUAGA [Estiorquin] | 75.5 | 55.7 | 31.3 | 129 | 164
36 | UCGCCCGAUGGAGAUACCAGCAGUUGUGCAGUGAUGUUGCACAAGUACUCGCUCCAUUGCUGCCCUUGGCAGCUCCCGGCAAACA [Enraed] | 93.3 | 85 | 87.6 | 82.8 | 89.3
37 | GGUUUAUAAGAGGAUACCAGUACAAAUAAAGUACAUUAAUAGUAGAGUGAUGUUCUAAAGUACCCUUGGCAGCUUAGAUUAAGUU [ExTheophylB.F] | 114 | 226 | 151 | 217 | 85.4
38 | AAAGUUGAAAGUGAUACCAGACGAGUGAAGGGAAGUAAUUAAUUUGGAGUGAUGUUCCGCGUCCCUUGGCAGCAUUUUGUAAUUU [Exclusion Theophylline B GF 24] | 166 | 195 | 189 | 186 | 153
39 | UUUCGGUUCUGAGGAUAUUCGGACAAAUAUAGUGAUGUUGUAUAAGGAGGAGGGUGUUGGCAGUGCGGAGAAGGCAGACCAGGAU [ExFMNB.W] | 853 | 557 | 1170 | 878 | 546
40 | GAGAAUCUAAUUGAUACCAGAGUAAGAACCAGUGAUGUUGGAAGAUUCCCUAAUAAAUAACUCCCUUGGCAGCGGAAGAGAAUAG [Totally accidental 2] | 142 | 230 | 176 | 327 | 172
41 | CGCCGCAAGGCGGGCCGGCCCACUCCGGAAGGAGCGCCCGCAAGGGCAGGUAGGUCGCCGGAGUGAUGUUCCGGUGGCCGGCCCG [#2 Exclusion - Arginine A Attempt #3 (Inspired by Omei)] | 433 | 244 | 376 | 592 | 354
42 | UGCGCUAUGUCCUAAAACGUCCUCCGGGAUACCAGAGUCUUUUUAUUCCCUUGGCAGCUUGAGUGAUGUUUGAUGCCGUUCUUGU [srrevmullin] | 364 | 215 | 366 | 287 | 315
43 | GUGUCCUAGUCGGCCGCCACUGGGUGCAAAAUAGAAGGAGCAUUGCACAUCAGUGAUGUUGAUGUCAGGACCGGGACUAGGGUGU [KL-SSTryp-B5 Brourdwalk1] | 652 | 406 | 597 | 563 | 439
44 | AGAAAAGGGACGAUCGUCGAGUUGCCAGAAGGAGCGGUAAUUUUACCAGGUAGGUCGCUGGCCCAGUGAUGUUGGGCUUUUAAGA [Biisinaor] | 105 | 96.5 | 125 | 133 | 92.4

— the supplement of paper PMC9170038
